Test results reported in the supplement of paper PMC10126150.
± gives the standard deviation of the averaged measurements.

Tested on: ATP
Experiment: switch fluorescence ratio, 500 uM ATP over buffer (Cy3 cluster intensity, sum of 5 cycles each) (fold (ratio)); higher = stronger signal-on switching upon ATP binding; sequences stand for … in TCGTCGGCAGCGTCAGATGTGTATAAGAGACAGTTTTTTTTTTTTTTTTTTTTTTTTT…TC
Conditions: aptamer strand: ATP DNA aptamer (quencher-CACCTGGGGGAGTATTGCGGAGGAAGG + anchor), 100 nM annealed; ATP concentration: 500 uM
How it was run: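 After annealing to 100 nM quencher-labelled ATP aptamer, Cy3-labelled switching-strand clusters on a modified Illumina MiSeq flow-cell were imaged in selection buffer. A second image followed after 15 min with 500 uM ATP at 22 °C, and five such buffer/ATP cycles were done, each separated by NaOH stripping and re-annealing. The fluorescence ratio, averaged per switch-domain sequence, is summed target-cycle over summed buffer-cycle Cy3 intensity per cluster, with clusters outside 100-1000 RFU excluded.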
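Further: ATP exposure 15 min at 22 °C before imaging.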

Sequence | switch fluorescence ratio
ATGGGGATTG | 0.983 ± 0.048
ATGGGGCGTG | 0.974 ± 0.016
ATGGGGGATG | 0.973 ± 0.028
ATGGGGGATT | 1 ± 0.025
ATGGGGGCAG | 1.03 ± 0.027
ATGGGGGCGA | 0.978 ± 0.014
ATGGGGGCGG | 1 ± 0.021
ATGGGGGGGG | 1.01 ± 0.039
ATGGGGGGTG | 1 ± 0.035
ATGGGGGTA | 1.004 ± 0.002
ATGGGGGTGG | 0.99 ± 0.0087
ATGGGGTAGG | 0.995 ± 0.022
ATGGGGTATG | 0.987 ± 0.024
ATGGGGTATT | 0.989 ± 0.015
ATGGGGTTGT | 0.966 ± 0.019
ATGGGTATTT | 1.02 ± 0.035
ATGGGTCTTT | 0.9811 ± 0.0016
ATGGGTGCTT | 1.01 ± 0.039
ATGGGTGGGT | 0.994 ± 0.034
ATGGGTTATG | 0.999 ± 0.016
ATGGGTTATT | 0.98 ± 0.045
ATGGGTTGGA | 1.008 ± 0.0088
ATGGGTTGGT | 0.981 ± 0.016
ATGGGTTTGT | 1.02 ± 0.021
ATGGTAGATA | 1.02 ± 0.0041

Sequence | switch fluorescence ratio
ATGGTAGG | 0.9749 ± 0.0017
ATGGTAGGCT | 0.98 ± 0.032
ATGGTAGTTG | 0.985 ± 0.018
ATGGTATCGT | 0.986 ± 0.018
ATGGTCTCTT | 0.987 ± 0.013
ATGGTCTGTT | 1 ± 0.036
ATGGTGAGTT | 1 ± 0.015
ATGGTGGATG | 0.9626 ± 0.0052
ATGGTGGGTG | 1.03 ± 0.046
ATGGTGTAGC | 0.986 ± 0.016
ATGGTTAACT | 1.03 ± 0.016
ATGGTTAAGG | 0.9812 ± 0.0085
ATGGTTGGGA | 0.998 ± 0.024
ATGGTTGTTG | 0.9628 ± 0.0034
ATGGTTGTTT | 0.995 ± 0.02
ATGGTTTAGA | 1.03 ± 0.031
ATGGTTTGGC | 1 ± 0.049
ATGTAACGTT | 1.006 ± 0.0088
ATGTAAGCCC | 0.992 ± 0.022
ATGTAAGGGG | 0.9951 ± 0.0039
ATGTAATAA | 1.022 ± 0.0049
ATGTAATAAT | 0.983 ± 0.027
ATGTACAATT | 1.0917 ± 0.00014
ATGTACAGGA | 1.05 ± 0.056
ATGTACGGAT | 1.02 ± 0.059

Sequence | switch fluorescence ratio
ATGTACGGGG | 1.04 ± 0.028
ATGTACTACT | 1.07 ± 0.068
ATGTACTCGC | 1.08 ± 0.031
ATGTAGAGAT | 0.97 ± 0.016
ATGTAGAGG | 0.988 ± 0.013
ATGTAGAGGG | 1.01 ± 0.02
ATGTAGGCCA | 1.04 ± 0.053
ATGTAGTCGG | 0.978 ± 0.012
ATGTATAGGG | 1 ± 0.0019
ATGTATTATG | 0.956 ± 0.026
ATGTATTGCG | 0.988 ± 0.044
ATGTCATATG | 0.994 ± 0.031
ATGTCCATTA | 0.994 ± 0.01
ATGTCCGTGG | 0.99 ± 0.014
ATGTCGAGGT | 1.01 ± 0.035
ATGTCGATGG | 0.9908 ± 0.0065
ATGTCGGATT | 1.002 ± 0.0021
ATGTCGGGCT | 0.982 ± 0.042
ATGTCTAAAA | 0.9887 ± 0.0065
ATGTCTTTTG | 1.03 ± 0.022
ATGTGACAGC | 0.955 ± 0.062
ATGTGAGATA | 1.02 ± 0.015
ATGTGATTGG | 1.01 ± 0.027
ATGTGCAGGC | 0.969 ± 0.026
ATGTGGATTG | 1.016 ± 0.009

Sequence | switch fluorescence ratio
ATGTGGCCTG | 0.988 ± 0.056
ATGTGGGGGC | 0.994 ± 0.03
ATGTGGGGTG | 1.06 ± 0.053
ATGTGGGTTA | 1.01 ± 0.022
ATGTGGTAGC | 0.9523 ± 0.004
ATGTGGTCTG | 0.9777 ± 0.0014
ATGTGGTGTC | 1.02 ± 0.015
ATGTGTAGTT | 0.992 ± 0.019
ATGTGTCCT | 1.016 ± 0.0039
ATGTGTCGTC | 1.01 ± 0.057
ATGTGTCTGC | 1.04 ± 0.035
ATGTGTCTGG | 0.998 ± 0.011
ATGTGTGGT | 0.959 ± 0.023
ATGTGTGGTT | 1.12 ± 0.15
ATGTGTTCTG | 0.931 ± 0.031
ATGTGTTGGG | 0.973 ± 0.032
ATGTTAAATG | 1 ± 0.016
ATGTTAAATT | 0.976 ± 0.014
ATGTTAAGGA | 0.998 ± 0.012
ATGTTAGACT | 1.021 ± 0.0071
ATGTTAGGGA | 1.034 ± 0.0052
ATGTTAGGGC | 0.975 ± 0.032
ATGTTAGTGA | 0.979 ± 0.042
ATGTTATATG | 1.004 ± 0.0036
ATGTTCAAAG | 0.975 ± 0.017

Sequence | switch fluorescence ratio
ATGTTCAAGA | 1.01 ± 0.015
ATGTTCAGTG | 0.985 ± 0.03
ATGTTCGGCC | 1.012 ± 0.01
ATGTTGAGTG | 0.995 ± 0.031
ATGTTGGGCG | 0.996 ± 0.052
ATGTTGGGCT | 0.962 ± 0.018
ATGTTGGTAC | 1.04 ± 0.02
ATGTTGGTCG | 0.974 ± 0.028
ATGTTGGTGT | 0.991 ± 0.045
ATGTTTACTG | 1.033 ± 0.0082
ATGTTTATTG | 0.998 ± 0.018
ATGTTTCATT | 0.9727 ± 0.0052
ATGTTTGAGG | 0.989 ± 0.029
ATGTTTGGGG | 1.03 ± 0.084
ATGTTTGTCT | 0.97 ± 0.039
ATGTTTTAAA | 0.9756 ± 0.0086
ATGTTTTTGT | 0.989 ± 0.042
ATTAAAATGG | 1.02 ± 0.017
ATTAAAGCCC | 1.02 ± 0.039
ATTAAATCGG | 1.01 ± 0.016
ATTAAATTAA | 1.034 ± 0.01
ATTAAGAATT | 0.9986 ± 0.0027
ATTAAGCATG | 1.004 ± 0.0088
ATTAAGGGGG | 0.9982 ± 0.0069
ATTAAGGGTT | 1.02 ± 0.025

Sequence | switch fluorescence ratio
ATTAAGTGTA | 0.98 ± 0.019
ATTAATAAAG | 0.9984 ± 0.0086
ATTAATAGCT | 1.05 ± 0.0049
ATTAATAGTG | 0.967 ± 0.028
ATTAATGGGA | 0.9986 ± 0.0061
ATTAATTAGA | 0.975 ± 0.041
ATTAATTAGG | 0.989 ± 0.015
ATTAATTTCT | 1 ± 0.024
ATTAATTTTA | 1.02 ± 0.041
ATTACCAATT | 2.24 ± 1.8
ATTACCAGGT | 1.27 ± 0.048
ATTACCTATA | 1.05 ± 0.044
ATTACGGCAG | 1.02 ± 0.059
ATTACTAGTT | 0.9996 ± 0.0035
ATTACTCGCG | 1.05 ± 0.012
ATTACTTTGC | 1.05 ± 0.021
ATTAGAAAGC | 0.981 ± 0.039
ATTAGAATGT | 1.02 ± 0.023
ATTAGATGGT | 1.02 ± 0.024
ATTAGCACGG | 0.997 ± 0.013
ATTAGCAGCA | 1.05 ± 0.025
ATTAGGATAG | 1 ± 0.054
ATTAGGATTT | 0.998 ± 0.0097
ATTAGGCATG | 1 ± 0.042
ATTAGGTCGG | 0.979 ± 0.023

Sequence | switch fluorescence ratio
ATTAGGTTAT | 1 ± 0.048
ATTAGTAGGG | 0.9807 ± 0.0041
ATTAGTGATG | 0.989 ± 0.016
ATTAGTGTTC | 0.987 ± 0.043
ATTAGTGTTG | 0.956 ± 0.022
ATTAGTGTTT | 0.976 ± 0.027
ATTAGTTGGG | 1.0052 ± 0.00057
ATTAGTTTTT | 0.9731 ± 0.0076
ATTATAAAAC | 1.03 ± 0.045
ATTATAAAAG | 0.989 ± 0.012
ATTATAGCGG | 0.9984 ± 0.0073
ATTATAGGG | 1 ± 0.015
ATTATAGTGG | 1.04 ± 0.02
ATTATAGTTT | 1.03 ± 0.049
ATTATATAGC | 0.996 ± 0.031
ATTATCAGCG | 1.01 ± 0.019
ATTATCATGT | 1 ± 0.074
ATTATCCAGC | 1.01 ± 0.017
ATTATCTGCG | 1 ± 0.011
ATTATCTGTG | 0.97 ± 0.039
ATTATCTTCT | 0.994 ± 0.061
ATTATGAAAG | 0.969 ± 0.056
ATTATGCCG | 0.993 ± 0.06
ATTATGGTAA | 1 ± 0.018
ATTATGTATC | 0.996 ± 0.011

Sequence | switch fluorescence ratio
ATTATTAGCT | 0.996 ± 0.012
ATTATTGGTT | 1.02 ± 0.029
ATTATTGTGT | 0.9903 ± 0.0075
ATTATTTTGC | 0.9464 ± 0.0026
ATTCAACAAT | 1 ± 0.016
ATTCAATCGG | 0.98 ± 0.024
ATTCAATTGT | 0.974 ± 0.013
ATTCACTCGT | 1.11 ± 0.13
ATTCACTCTA | 1.08 ± 0.026
ATTCAGGTGT | 2.66 ± 0.29
ATTCATAGTA | 0.9772 ± 0.0064
ATTCATCGCT | 1.0258 ± 0.00018
ATTCATGAT | 0.969 ± 0.044
ATTCATTTTA | 0.999 ± 0.034
ATTCCATTTG | 1.03 ± 0.05
ATTCCGGGCT | 1.05 ± 0.031
ATTCCGGTCT | 0.978 ± 0.011
ATTCCTAACA | 1.008 ± 0.0089
ATTCCTAGGT | 1.33 ± 0.45
ATTCCTCTAG | 1.318 ± 0.0041
ATTCCTGGGA | 1.03 ± 0.018
ATTCCTGGGC | 1.03 ± 0.027
ATTCCTTTGT | 1.01 ± 0.026
ATTCGATATG | 0.997 ± 0.011
ATTCGCTTTT | 1 ± 0.042
